# Measured values taken from patent US20220143148A1, “COMPOSITIONS AND METHODS FOR MODULATING CGRP SIGNALING TO REGULATE INTESTINAL INNATE LYMPHOID CELLS” (The Broad Institute, Inc., priority 2019, published 2022).
# B1: OVA (protein, UniProt P01012 2-386, looked up)
# Ovalbumin: GSIGAASMEFCFDVFKELKVHHANENIFYCPIAIMSALAMVYLGAKDSTRTQINKVVRFDKLPGFGDSIEAQCGTSVNVHSSLRDILNQITKPNDVYSFSLASRLYAEERYPILPEYLQCVKELYRGGLEPINFQTAADQARELINSWVESQTNGIIRNVLQPSSVDSQTAMVLVNAIVFKGLWEKAFKDEDTQAMPFRVTEQESKPVQMMYQIGLFRVASMASEKMKILELPFASGTMSMLVLLPDEVSGLEQLESIINFEKLTEWTSSNVMEERKIKVYLPRMKMEEKYNLTSVLMAMGITDVFSSSANLSGISSAESLKISQAVHAAHAEINEAGREVVGSAEAGVDAASVSEEFRADHPFLFCIKHIATNAVLFFGRCVSP
# System: small intestinal immune cells
# Experiment: Droplet-based scRNA-seq of small intestinal immune cells (LP and PP), OVA vs PBS, clustering and differential expression
# Format: in vivo, mouse
# Conditions: PP, cluster ID 8
# Text: To comprehensively characterize small intestinal immune cells, Applicants generated scRNA-Seq profiles for 58,067 immune cells collected from lamina propria (LP) and Peyer's patch (PP) regions at steady state and after induction of a type 2 inflammatory reaction to ovalbumin (OVA) (Brandt et al., 2003) (FIGS. 1A and 8A). To ensure sufficient representation of rare cells, Applicants combined a normalization strategy—removing by flow sorting either a portion of IgD+ naïve B cells, which are the most abundant cell type in PPs, or all CD19+ and CD3+ T cells (FIG. 8B, Methods)—with profiling of a sufficiently large number of cells number (P>0.99 to recover at least 15 cells from each cluster, Methods) by massively parallel scRNA-seq (Haber et al., 2017) (Methods). Applicants obtained 36,797 and 21,270 high quality cells passing initial filtering (Methods) from PP and LP regions, respectively.
# Overall, Applicants annotated 27 cell subsets across the two compartments, spanning T cells, B cells, ILCs, dendritic cells (DCs), myeloid cells and stromal cells, in frequencies ranging from 0.07% to 14%. Briefly, Applicants first partitioned the cells from the PP regions by unsupervised clustering (Methods) into 46 clusters, retained the 97% of cells that were robustly assigned cell identities in each cluster (Methods), assigned the cells from the LP regions to the 46 clusters using a classifier (Methods), and visualized the data with scvis (Ding et al., 2018), a deep generative model-based method (FIGS. 1B and 8C, Methods). Next, Applicants identified genes that were differentially expressed between the cells in each cluster and the remaining cells (Table 1, Methods), as well as between pairs of clusters (Table 2), to elucidate identities of similar cell types/states. Applicants excluded from downstream analysis clusters mostly consisting of contaminants from epithelium, likely doublets, or cells with a small number of Unique Molecular Identifiers (UMIs) (FIGS. 1C and 8D), or lacking distinct markers (Methods). Altogether, Applicants retained 27 clusters spanning 85% of the cells and each associated with distinct marker genes (FIG. 8E, Methods).
# To induce allergic reaction to OVA, 6 to 7 weeks old mice were sensitized twice, two weeks apart, with 50 μg of OVA plus 1 mg of aluminum potassium sulfate adjuvant via intraperitoneal injection. Two weeks later, mice were orally administered with 50 mg of OVA on every other day for a total of five times. 1 μg of α-CGRP peptide was administered simultaneously when indicated. Mice were deprived of food for 3-4 hours in cages with wood chip bedding for limiting antigen degradation in the stomach before each intragastric challenge.
# Isolation of cells from Peyer's patches (PPs). Peyer's patches (PPs) were carefully dissected from the small intestine under a stereo microscope using a fine scissor, pierced once with a fine forcep. Tissues were digested in freshly made digestion buffer (RPMI-1640 containing 100 μg/ml Liberase™ and 50 μg/ml DNase I at 37° C. on a roto-mixer. After 15 min, tissues were very gently mixed using a 1 ml pipette. The supernatant was collected and added to ice-cold MACS buffer (pH 7.4; PBS plus 2% FCS and 2 mM EDTA). Pre-warmed (37° C.) fresh digestion buffer was added to the remaining tissues. After rotation at 37° C. for 15 min, the mixture was vigorously mixed using a 1 ml pipette for 1 min. Supernatants from the two steps were combined and passed through 70 μm filters and stained for FACS (below).
# Isolation of cells from the lamina propria (LP). The small intestines were opened longitudinally and washed in ice-cold PBS. For scRNA-seq, roughly 0.5 cm of fragments from each of the distal, middle and proximal regions without visible PPs were collected. Epithelial cells were dissociated by tissue rotation in pre-warmed (37° C.) PBS containing 10 mM EDTA at 37° C. for 15 min, followed by additional incubation on ice for 15 min. Tissues were then shaken vigorously. […]
molecule,measurement,setting,value
B1,Rab35 percentage of expressing cells in OVA-treated group,,0.207
same,Rac2 percentage of expressing cells in OVA-treated group,,0.97
same,Rel percentage of expressing cells in OVA-treated group,,0.139
same,Rgs1 percentage of expressing cells in OVA-treated group,,0.699
same,Rnf125 percentage of expressing cells in OVA-treated group,,0.167
same,Rnf157 percentage of expressing cells in OVA-treated group,,0.188
same,Rora percentage of expressing cells in OVA-treated group,,0.161
same,Rrad percentage of expressing cells in OVA-treated group,,0.191
same,Rsrp1 percentage of expressing cells in OVA-treated group,,0.559
same,Samd9l percentage of expressing cells in OVA-treated group,,0.176
same,Samsn1 percentage of expressing cells in OVA-treated group,,0.324
same,Sh2d1a percentage of expressing cells in OVA-treated group,,0.488
same,Sik1 percentage of expressing cells in OVA-treated group,,0.161
same,Skil percentage of expressing cells in OVA-treated group,,0.207
same,Sla percentage of expressing cells in OVA-treated group,,0.335
same,Slfn2 percentage of expressing cells in OVA-treated group,,0.408
same,Sp100 percentage of expressing cells in OVA-treated group,,0.537
same,Taf10 percentage of expressing cells in OVA-treated group,,0.347
same,Tfam percentage of expressing cells in OVA-treated group,,0.19
same,Tgif1 percentage of expressing cells in OVA-treated group,,0.305
same,Tm6sf1 percentage of expressing cells in OVA-treated group,,0.454
same,Traf1 percentage of expressing cells in OVA-treated group,,0.464
same,Tsc22d3 percentage of expressing cells in OVA-treated group,,0.664
same,Tuba4a percentage of expressing cells in OVA-treated group,,0.191
same,Txndc5 percentage of expressing cells in OVA-treated group,,0.239
same,Txnip percentage of expressing cells in OVA-treated group,,0.398
same,Ube2s percentage of expressing cells in OVA-treated group,,0.478
same,VgIl4 percentage of expressing cells in OVA-treated group,,0.47
same,Vps37b percentage of expressing cells in OVA-treated group,,0.79
same,Zc3h12a percentage of expressing cells in OVA-treated group,,0.182
same,Zfp36l2 percentage of expressing cells in OVA-treated group,,0.84
same,Zfp512 percentage of expressing cells in OVA-treated group,,0.446
same,AW112010 LN (average fold change),OVA vs PBS,0.208
same,AY036118 LN (average fold change),OVA vs PBS,−0.339
same,Actr3 LN (average fold change),OVA vs PBS,0.315
same,Alyref LN (average fold change),OVA vs PBS,−0.597
same,Amd1 LN (average fold change),OVA vs PBS,−0.426
same,Arf4 LN (average fold change),OVA vs PBS,−0.186
same,Arfrp1 LN (average fold change),OVA vs PBS,0.609
same,Arl6ip1 LN (average fold change),OVA vs PBS,0.367
same,Arl6ip5 LN (average fold change),OVA vs PBS,0.344
same,Arpc5l LN (average fold change),OVA vs PBS,0.383
same,Arrb2 LN (average fold change),OVA vs PBS,0.295
same,Ash1l LN (average fold change),OVA vs PBS,0.491
same,B2m LN (average fold change),OVA vs PBS,0.159
same,Bcl2 LN (average fold change),OVA vs PBS,0.286
same,Bcl2a1b LN (average fold change),OVA vs PBS,−0.507
same,Bcl2l11 LN (average fold change),OVA vs PBS,−0.208
same,Bhlhe40 LN (average fold change),OVA vs PBS,−0.159
same,Cap1 LN (average fold change),OVA vs PBS,0.235
same,Ccr2 LN (average fold change),OVA vs PBS,0.330
same,Cd47 LN (average fold change),OVA vs PBS,0.262
same,Cd69 LN (average fold change),OVA vs PBS,−0.386
same,Cd74 LN (average fold change),OVA vs PBS,−0.187
same,Cdk2ap1 LN (average fold change),OVA vs PBS,−0.673
same,Cdkn1a LN (average fold change),OVA vs PBS,−0.980
same,Cdv3 LN (average fold change),OVA vs PBS,−0.281
same,Cks2 LN (average fold change),OVA vs PBS,−0.601
same,Clec2d LN (average fold change),OVA vs PBS,0.391
same,Coq10b LN (average fold change),OVA vs PBS,−0.426
same,Crem LN (average fold change),OVA vs PBS,−0.681
same,Csrp1 LN (average fold change),OVA vs PBS,−0.437
same,Ctla2a LN (average fold change),OVA vs PBS,0.372
same,Cxcr4 LN (average fold change),OVA vs PBS,0.544
same,Ddx21 LN (average fold change),OVA vs PBS,−0.379
same,Defa24 LN (average fold change),OVA vs PBS,−0.967
same,Dgat1 LN (average fold change),OVA vs PBS,−0.352
same,Dusp1 LN (average fold change),OVA vs PBS,−0.244
same,Eef2 LN (average fold change),OVA vs PBS,0.257
same,Egr1 LN (average fold change),OVA vs PBS,−0.640
same,Eif4a2 LN (average fold change),OVA vs PBS,0.300
same,Emb LN (average fold change),OVA vs PBS,−0.223
same,Fam105a LN (average fold change),OVA vs PBS,0.376
same,Fasl LN (average fold change),OVA vs PBS,0.296
same,Fcer1g LN (average fold change),OVA vs PBS,0.170
